From a protein production outcome set (Wang et al. 2014)

Assay: label from the status in PepcDB records

Protein production, not failed:
MNGMLLSRIKKKAMELAEDLKLVDFSFGLPYTWVLVEGIEGRALGVAMTLPEEVQRYTNSIEEPSLLEFIDKADSLNIIERTLGVAAINAVSQYYIDLREAKWIDVTELIQQDEIKRIAIIGNMPPVVRTLKEKYEVYVFERNMKLWDRDTYSDTLEYHILPEVDGIIASASCIVNGTLDMILDRAKKAKLIVITGPTGQLLPEFLKGTKVTHLASMKVTNIEKALVKLKLGSFKGFESESIKYVIEV
MNHNYVEVKYPAIFRDEGTYWDVRFPDVPAAQTFGASVQVAADNAANALAIALFEQSLPPASDPQYWRLASTEFVVWITMADVQFGPGADTPEPMN
MNHSIPTLRTERLTLRPLAMADFPAYRDFMASPRSTGVGGPYDLPSTWGVFCHDLANWHFFGHGALMIDLGETGECIGQIGINHGPLFPEKELGWLLYEGHEGRGYAAEAAVALRDWAFETLNLPTLVSYVSPQNRKSAAVAERIGGTLDPLAPRSDPEDLVYRYHQVKTA
MNIEEFTSGLAEKGISLSPRQLEQFELYYDMLVEWNEKINLTSITEKKEVYLKHFYDSITAAFYVDFNQVNTICDVGAGAGFPSLPIKICFPHLHVTIVDSLNKRITFLEKLSEALQLENTTFCHDRAETFGQRKDVRESYDIVTARAVARLSVLSELCLPLVKKNGLFVALKAASAEEELNAGKKAITTLGGELENIHSFKLPIEESDRNIMVIRKIKNTPKKYPRKPGTPNKSPIEG
MNIEIKDTLISEEQLQEKVKELALQIERDFEGEEIVVIAVLKGSFVFAADLIRHIKNDVTIDFISASSYGNQTETTGKVKLLKDIDVNITGKNVIVVEDIIDSGLTLHFLKDHFFMHKPKALKFCTLLDKPERRKVDLTAEYVGFQIPDEFIVGYGIDCAEKYRNLPFIASVVTEESYNLKSR

Protein production, failed:
MNEVKESLRSIEQKYKLFQQQQFTFIAALEHCRENAHDKIRPISSIEQVQSYMEHYCNNSTHRRILIMFMDICSELSKLCQHFEALHSGTPVTNSLLEKCKTLVSQSNDLSSLRAKYPHEVVNHLSCDEARNHYGGVVSLIPIVLDFMKEWIAHSEKLPRKVLQHGTT
MNFEAIKSIYLFEMARTRRTLLQSVVSPVISTSLYFIVFGTAIGSRIQEVGGVSYGAFITPGLIMLTLLTQCISNGSFGIYFPKFTGTVYEILSAPVSMTEIVAGYVGAAATKGLMIGTIILITASFFVDITIAHPFMMVLFFVLTAVSFSLFGFIIGIWATNFEQLNLIPMLVVPPLTFLGGSFYSIDMLPPFWQTVSHFNPVLYLISGFRWSFYEIADVNPVISLAMITLFLAVCLGVVAWMFKTGYRLRN
MNFLPPTPPPPDPVGWKLPRGSLARHLVLRLMPPLLLLVLLDLAATWVITHKIDMSIWMLEDFFWLMVVGQIVLIALFTGVIIRGVRSGLRSVNHLAEEIRQRSIDDMQPMEVAGLPAEIAPLVTHINDLLGRLDASLAAQRRFIGHAAHQLRTPLSGLRLESELMLARPLPEDVRMRAERIKAVSDRMIRLGQQLLVMARADPDARPQDRFIRLDLCEWVRASGAEWIPRVRAAQAEIDLVAPEQPVWIDGDPLLLDEMLGNLIDNALRYGKPRGRICLTIDVNPPALIIEDDGPGISPQERDSVFEAFYRAPDAKAGGSGLGLAIVREIAHAHGAWWKLSSRPEYAGTRLSVVFPGPRIGTQLTRQERAS
MNFNWFLMLFLFNFSVLLGSDTTALGHYQRANEYYLSKRYYDAIDELVEAIKINPNYYEAYKFIASIYYSLKIYTQAQFFIEKASKMSNEDTEYKILYANILLKNDKIDQAKKIYSEVLVKQRNNIDALVGLASIFEKNGLFIAAANYYLSILDYSQNNYSAFEHLIDIYQRLGMHDKIRHLINKVRVNFLSFPDFHKRVAEFYISINNLGLAEKYALNYLALIESSYKDFGVVDAYRLLALVYLHEFKYEDAIEALQKAILVNKDSDELYYLLGYSYLRFGDIEKAILNLERAKNLKKDLEFYNIALEESFFASNFRNFLKNNSNARISKHYENEGLKAFKSLNLNKALFNAKNAVDIWPDNDSARFLLSKIYKLMNLDIMAYEQLFYLAKQRNSTDSRILDFYDVVSFDVRKSLFYKYGYKSIADFNKLYDDRVVYKMAIFTQSENKFFGANDLILRYAERVLERNLNMEIVNYNFDYNKNRDYLINNFSEGFSYSRNNNLDLFLIFDFKADILKNTATLVVNIFSGKTGIKLVSFSYDVGGVNYLSNALNSLSKDFHDYLPKKGKILQIKNDDALINLGQVNGVVKGDVFLILKEGALNSDTRDSGFIVYKKSDILGEILIEDISDYISRGIVKSSTFLKDYVQEGATVLIKR
MNFPISTIRIGGWVVVAKNPDDIVAKFYFAKKKLIWEFLFGEPETNTLRLKRKIEIQWNDVSSFEESISSRDETGILKIELKKRPTFFIETNPQAGKHTQWKQLDHDFTGDHASNYRRHTLHFPPGVLQKNLEKLVTDSFWSKLYEVPFPVHESRYFDSGFENNSSRNSHSHTVGFNVNNGPQHHFSQGIGGVGVGEGNFSMANGGWQRNSYSPVNSLNYNTANEFFGMQATPPSSQVVNEHYNTQNDFTGSQFGYHMNQDEIQKILESQAYAVPDTQTKLMSSAMNNVPKYPQAGSCLESMLFWYEHRRRFQQ
MNFPTQTHAIDFDTAELQRLGFRNRPDAVLPPPSLPELVYQLGRQLQTSLEAERILTLFFQGVQRFLPLSGLVYRHIESDLHLRLGEMSSDSASFHLRHEGKCIGELEFQGAKPFDTRQLSDLESLLVCLVYPLLNALLYRIATQTALRDPLTSTGNRIAMDQGLAREIEISSRHKQPLSLLMLDIDHFKKVNDEYGHHTGDDVLKTVAQSLKAQLRNIDRVFRYGGEEFVVILSNTGATAAELIGERLRQAVRNLEFRELDPALTMTVSLGCSTLLPTETADSLLRRADNALYVAKREGRNRLAMAS
MNFQRFKAIVKKEVIQLKRDRASFGIAIMMPIVMIFLFGYAVNTELSNISMTVLDQSNSIESRELIQSFQNTGYFKVVSRVKSIEEVREKMDKGKVHAAIVIPPDFSNKLQMREESNVQLLVDGSDPTTARTAFSSGVVSGQQYGMKKLQGFGEKTSSKFQEGGVNVNTRVLYNPNLRNQNFTIPGLIGLIMQNITILLTAFALVRERERGTIEQLTVSPLKAGEIILGKLVPYIFIGYIDFLFSLVLGIKWFNVPINGSIPLLLLLGFAFVICALAIGILISTISKTQLQAMQLTILVLLPSILLSGFVFPREAMPKVIQLIGNVLPLTYFLNILRGIITKGVGVQYLSRDIAAMCCLAVILLTLSIVRFRAKPYNS
MNGASLCNSVLLHSHSLSRFQSSSSSCSVYLISSARTTSKYISISHRIRQSFREVIEKRSNGFCSFAVNKRRSGDSVIVESDDDDEEDDEDWGEFDGEDEGEEEEEDEGEFLPMDKMKKWLEKKPRGFGLGKKYETLIEDKLLDEIEQSWKAQAANLNKLKNDPLKSQQLKRDDNLLKGTGETQIGFRVRVTNLPKKKNVHRDLKVAFKEVSGVLSITPAVSGNKKTKDPVCKGFAHVDFKTEIDANRFVKQFTGQSLAFGKVIKQIKCQVVEFTSDDSVSKEVYLDNGFKVQKLPYSGLEGDSSADVVEEEVLLGSGEESDDSEEEVDEREVEDDERNHISSSIESSPIEMTRDSNTKLKFEKQVVKREIREHEELETPLVSFQVNKSEEAAAETHLDDEQSEEAVAETLLNDELDGDDEEEVAEDNLEPLNSSLSSSEENRVDRIRRLEQKLLGKEKLLGGGVGFDKPEAKPARVEGKKKEKKKKTKILVKGQAKKGTKIEIPGSSKR
MNGTALNWLELCRTVGPCLRPGGTALTDRALEVCNLSADSLIADVGCGAGGTLYHLEQIGFRRLVGLDPSETLLGDAAPRLETARLIRGEAATIPLRSATVDLLLCECVLSVLPGRSAPLREFARVVKDGGYLVVSDVFSTAGDEATGQAGGLLTRKELLAAVAGNGFTLLRWETHDRLLKEFAVRMILAGECLPDAWKGGTERKGEAARGGLGYFLMVARKAEDPLP
MNHHHHNHHGEAGFKRKVDYLDRPERSEVLAPEEFLQRIPMEKTASILDLGAGTGFLTIPAAKKVENTVFALDLDTKMLELIETKAKTAELANVKTLEASMDDIPLETSSVDVVLASLVLHEADSLADVLREVSRVVKTGGYFASLEFDTKGTDLKGPPMEIQISAEKLKEELAGFGFEVVQNWELDEGMYVSIAEKKE
MNHTLQFPKAPEHLLQALNEVIPKCKLMAQQLPETAISLWLIPPVFPTERLDDDIIRRIWSDTPYWIFCWASGLAMAQWLLAEPHHVKDKVVLDFGAGSGVVAIAAKMAGAKRVICCDIDETSLNACRENALLNNVELEYLNDLYLSESVDILLAADVLYDQSNRFFLDEFLKFAPEVWVADSRVKNFSHPGYIKIDERSATTWPDLDEAKEFRNVSFYKTLEHHHHHH
MNIAFTFKNFEPSEHLKKYARRRFEKLARFVGKSANLELQVALSLDKFRQKAEVQLVGDSINIAAVEQSEDMYATIDLVLDKLEAQLKKHVSRVKERRRSARTNANIDVFTYHTEGEGEDRAIVGTDQFVPKPLHVDEAAMQLDALDYEFLVFLNAESERINVIYRRRNGDFGLIDPVV
MNIAISGASGFIGKHLTEYLTEAGHRVVPLGRPMFREGTSGHLIQALSHCDVIINLAGAPIGKRWTPEYKKELYDSRIKVTHCIIRAMDAVKTKPRLMISASAVGYYPEEGTFDEYTNTRGSGFLAELCYAWEKEARRCPSQTRLVITRFGIVLSPDGGAMEQMLRPLRITRVAGVIGPGTQPFPWIAIQDLCRAMEFIIRHEEASGVFNLVAPQQVSQYAFTQAMAARYHAWMKVVVPRWFFRMRYGEAASFLASGQNVRPTRLLEAGFRFAKPTIEDFFEGTDHAVVDRLDLHRYMGTWYEIARFDHRFERGLSEVTATYTLMPDGTVRVENRGCKHKKPYDVCKTAEGRAKIPDPSQPGKLKVSFFLSFYSDYYVLELDQDEYNYALIGSSSDKYLWILSRAPILPEEIKKKLLDAATRRGYDVKKLIWVEQREKKIM
MNIALARSVVGERLRLLAERMGLVAKRLQDMSQDDTPGRCTPEHCAIQVDSDDEIGDGARAFNQLIQALSLSIETETAVRTFTEMLVSELDVHQLTEQALALLLQHTGADGGAILIEVDGEIRVAASQGIGSAHTLANNDRVRSALRTERRHRVQLPEDLVVDGMLAQFRPKEVIIDPVRHKEVVLGAVVLASGQGFSAEDRNRLDVFERGLALALHNALLYDRLQTLAALDPLTGAYNRRFGMARLREEFRRAVRLNLPLGILMFDIDYFKRINDTYGHLAGDRVLSRVAKTARSVLREGDVLIRYGGEEFIAVLPAASLHDLEYVGERLRHQVDDLMLMDGDQSMHVTVSIGAAAYPDTDVEDETALVDRADKALYAAKSDGRNRLVIS
MNIAVQTLRALAETIVTPSYLLTIIVIMIMFYMKNRRISFMQRMIIGQNIESPFELTLSQITLSIIAGALGSVILSYLGVVFKDNSAIVLLFLISVILMFAGSRFLCFSYSGSILGIISIVIQFLSVNKIADVSSIKFLEIDVVMIMSLVGVLHIVEGIIVMIDGKSGAIPVFTNREDKIIGGFAFKRYWVLPITLLFLLNNADLNGTVNVATPDSWPIIRTAFTVIGKSAVISFMMFYGIIGYKSVTFTKSKRKKTFMSGMAIALYGAVLLGLSQVLKHNLEQQIILCLLAPLLHETMLRLEAYSEVKGKPKFVSGEDGVMVLDVAPNSQAYEMGIKSGDLLLEINDTKIFSEEDITRSIQNMSKYMWFKIKDVQGKLNEISYDKFDRNKKLGAIFVPKGMPKESKIVKFEHKSFDDILDNVNKEDENKKDQK
